Assays:
[1] = biological target: ED-tagged human SIRPα V1 receptor on Jurkat signaling reporter cells (human) (UniProt P78324); test: cell-based or functional assay
[2] = biological target: ED-tagged human SIRPα V2 receptor on Jurkat signaling reporter cells (human) (UniProt P78324); test: cell-based or functional assay
Chain of ED-tagged human SIRPα V2 receptor on Jurkat signaling reporter cells (human) (P78324 31-504): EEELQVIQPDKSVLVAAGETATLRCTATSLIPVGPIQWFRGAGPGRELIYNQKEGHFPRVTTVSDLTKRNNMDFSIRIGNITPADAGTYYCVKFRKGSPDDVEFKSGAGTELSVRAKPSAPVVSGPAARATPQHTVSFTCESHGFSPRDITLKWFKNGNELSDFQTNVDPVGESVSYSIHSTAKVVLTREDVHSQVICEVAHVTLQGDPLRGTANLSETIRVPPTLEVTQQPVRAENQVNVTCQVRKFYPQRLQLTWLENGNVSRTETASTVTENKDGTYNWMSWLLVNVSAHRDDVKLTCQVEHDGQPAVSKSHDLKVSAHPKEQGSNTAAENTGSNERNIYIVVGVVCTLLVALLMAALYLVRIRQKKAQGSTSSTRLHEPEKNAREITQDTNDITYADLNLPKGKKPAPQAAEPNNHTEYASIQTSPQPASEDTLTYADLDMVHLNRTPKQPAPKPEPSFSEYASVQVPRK

Chain of Anti-SIRPα antibody KWAR23 (VH): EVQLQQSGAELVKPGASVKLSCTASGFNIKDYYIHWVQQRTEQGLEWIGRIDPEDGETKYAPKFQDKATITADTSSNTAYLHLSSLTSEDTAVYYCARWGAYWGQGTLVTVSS
Chain of Anti-SIRPα antibody KWAR23 (VL): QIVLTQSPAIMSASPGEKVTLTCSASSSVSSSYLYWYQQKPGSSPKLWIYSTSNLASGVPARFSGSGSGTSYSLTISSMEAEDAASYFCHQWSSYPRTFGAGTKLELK
Chain of ED-tagged human SIRPα V1 receptor on Jurkat signaling reporter cells (human) (P78324 31-504): as the sequence (P78324 31-504) above

Blockade of Cellular CD47-Mediated SIRPα Signaling; IC50 [1]: 40 pM
Blockade of Cellular CD47-Mediated SIRPα Signaling; IC50 [2]: 40 pM
Substance: Anti-SIRPα antibody KWAR23

From patent publication US20230012273A1
